Results: patent US20110195911A1, “SYNTHETIC ANALOGS OF THE JUXTAMEMBRANE DOMAIN OF IGF1R AND USES THEREOF” (THE UNITED STATES OF AMERICA,AS REPRESENTED BY THE …, priority 2008, published 2011)
Where no end group is shown, it is not given here. [ ]: non-standard residue; d: D form. The star is where a group is joined. Palmitoyl = CCCCCCCCCCCCCCCC(=O)*

target: Insulin-like growth factor 1 receptor (IGF1R) (UniProt P08069 31-1367, limits assumed); experiment: cell-based or functional assay
Sequence (P08069 31-1367 limits assumed): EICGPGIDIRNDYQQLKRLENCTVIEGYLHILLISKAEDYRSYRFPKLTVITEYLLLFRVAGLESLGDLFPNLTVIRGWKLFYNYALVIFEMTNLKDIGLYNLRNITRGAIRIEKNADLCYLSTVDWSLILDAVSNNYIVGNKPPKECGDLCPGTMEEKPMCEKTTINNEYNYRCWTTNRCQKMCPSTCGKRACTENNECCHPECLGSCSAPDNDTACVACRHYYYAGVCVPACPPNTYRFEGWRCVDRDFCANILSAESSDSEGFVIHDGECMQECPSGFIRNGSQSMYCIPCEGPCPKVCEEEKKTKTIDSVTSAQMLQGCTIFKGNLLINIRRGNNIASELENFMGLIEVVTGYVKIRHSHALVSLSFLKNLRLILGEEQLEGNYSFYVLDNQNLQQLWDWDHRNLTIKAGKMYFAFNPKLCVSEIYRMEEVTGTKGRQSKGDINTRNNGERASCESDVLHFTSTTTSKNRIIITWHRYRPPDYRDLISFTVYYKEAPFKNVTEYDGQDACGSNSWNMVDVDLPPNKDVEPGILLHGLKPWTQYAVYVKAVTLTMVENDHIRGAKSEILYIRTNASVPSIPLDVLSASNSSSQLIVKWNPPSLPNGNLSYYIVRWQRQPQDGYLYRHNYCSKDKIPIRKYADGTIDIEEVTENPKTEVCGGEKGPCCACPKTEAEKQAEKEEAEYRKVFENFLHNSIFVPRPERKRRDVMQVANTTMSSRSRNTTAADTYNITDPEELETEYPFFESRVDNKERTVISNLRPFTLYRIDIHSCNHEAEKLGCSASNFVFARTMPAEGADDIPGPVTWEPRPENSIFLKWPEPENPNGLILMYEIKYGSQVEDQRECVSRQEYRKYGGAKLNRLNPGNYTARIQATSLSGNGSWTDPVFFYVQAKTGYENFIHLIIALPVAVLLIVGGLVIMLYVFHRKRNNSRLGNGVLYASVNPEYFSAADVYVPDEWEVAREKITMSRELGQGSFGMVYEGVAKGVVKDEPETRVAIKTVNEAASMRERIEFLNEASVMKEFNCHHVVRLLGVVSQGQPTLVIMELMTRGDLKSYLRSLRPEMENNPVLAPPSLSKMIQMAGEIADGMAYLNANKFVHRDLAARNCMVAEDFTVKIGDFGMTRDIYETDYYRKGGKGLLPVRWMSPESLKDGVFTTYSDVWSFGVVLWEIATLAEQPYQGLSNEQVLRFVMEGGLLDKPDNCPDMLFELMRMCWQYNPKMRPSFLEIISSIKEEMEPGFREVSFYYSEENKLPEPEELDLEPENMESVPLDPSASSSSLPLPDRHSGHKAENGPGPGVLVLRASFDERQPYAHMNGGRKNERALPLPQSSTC

| Binder | GI50 (µM), MTT assay, MCF-7 cells [µM] | TGI (µM), MTT assay, MCF-7 cells [µM] |
| --- | --- | --- |
| Ac-[dY][dL][dV]G[dN]G[dL][dR][dS][dN][dN][dR][dK](Palmitoyl) [peptide 18 (Ac-YLVGNGLRSNNRK-(ε-Pal)), retro-inverso version of peptide 27] | 0.04 | 0.4 |
| Palmitoyl-HRKRNNSRLGNGVLYASVN-NH2 (SMILES CCCCCCCCCCCCCCCC(=O)N[C@@H](Cc1c[nH]cn1)C(=O)N[C@@H](CCCNC(=N)N)C(=O)N[C@@H](CCCCN)C(=O)N[C@@H](CCCNC(=N)N)C(=O)N[C@@H](CC(N)=O)C(=O)N[C@@H](CC(N)=O)C(=O)N[C@@H](CO)C(=O)N[C@@H](CCCNC(=N)N)C(=O)N[C@@H](CC(C)C)C(=O)NCC(=O)N[C@@H](CC(N)=O)C(=O)NCC(=O)N[C@H](C(=O)N[C@@H](CC(C)C)C(=O)N[C@@H](Cc1ccc(O)cc1)C(=O)N[C@@H](C)C(=O)N[C@@H](CO)C(=O)N[C@H](C(=O)N[C@@H](CC(N)=O)C(N)=O)C(C)C)C(C)C) [peptide 3 (Pal-HRKRNNSRLGNGVLYASVN-NH2)] | 1 | 1.55 |
| Palmitoyl-HRKRNNSRLGNGVLYASVNPEYFSAA-NH2 (SMILES CCCCCCCCCCCCCCCC(=O)N[C@@H](Cc1c[nH]cn1)C(=O)N[C@@H](CCCNC(=N)N)C(=O)N[C@@H](CCCCN)C(=O)N[C@@H](CCCNC(=N)N)C(=O)N[C@@H](CC(N)=O)C(=O)N[C@@H](CC(N)=O)C(=O)N[C@@H](CO)C(=O)N[C@@H](CCCNC(=N)N)C(=O)N[C@@H](CC(C)C)C(=O)NCC(=O)N[C@@H](CC(N)=O)C(=O)NCC(=O)N[C@H](C(=O)N[C@@H](CC(C)C)C(=O)N[C@@H](Cc1ccc(O)cc1)C(=O)N[C@@H](C)C(=O)N[C@@H](CO)C(=O)N[C@H](C(=O)N[C@@H](CC(N)=O)C(=O)N1CCC[C@H]1C(=O)N[C@@H](CCC(=O)O)C(=O)N[C@@H](Cc1ccc(O)cc1)C(=O)N[C@@H](Cc1ccccc1)C(=O)N[C@@H](CO)C(=O)N[C@@H](C)C(=O)N[C@@H](C)C(N)=O)C(C)C)C(C)C) [peptide 4 (Pal-HRKRNNSRLGNGVLYASVNPEYFSAA-NH2)] | 1 | > 5 |
| Palmitoyl-RLGNGVLY-NH2 (SMILES CCCCCCCCCCCCCCCC(=O)N[C@@H](CCCNC(=N)N)C(=O)N[C@@H](CC(C)C)C(=O)NCC(=O)N[C@@H](CC(N)=O)C(=O)NCC(=O)N[C@H](C(=O)N[C@@H](CC(C)C)C(=O)N[C@@H](Cc1ccc(O)cc1)C(N)=O)C(C)C) [peptide 20 (Pal-RLGNGVLY-NH2)] | 0.2 | > 5 |
| Palmitoyl-SRLGNGVLY-NH2 (SMILES CCCCCCCCCCCCCCCC(=O)N[C@@H](CO)C(=O)N[C@@H](CCCNC(=N)N)C(=O)N[C@@H](CC(C)C)C(=O)NCC(=O)N[C@@H](CC(N)=O)C(=O)NCC(=O)N[C@H](C(=O)N[C@@H](CC(C)C)C(=O)N[C@@H](Cc1ccc(O)cc1)C(N)=O)C(C)C) [peptide 19 (Pal-SRLGNGVLY-NH2)] | 0.15 | 2 |
| Palmitoyl-RNNSRLGNGVLY-NH2 (SMILES CCCCCCCCCCCCCCCC(=O)N[C@@H](CCCNC(=N)N)C(=O)N[C@@H](CC(N)=O)C(=O)N[C@@H](CC(N)=O)C(=O)N[C@@H](CO)C(=O)N[C@@H](CCCNC(=N)N)C(=O)N[C@@H](CC(C)C)C(=O)NCC(=O)N[C@@H](CC(N)=O)C(=O)NCC(=O)N[C@H](C(=O)N[C@@H](CC(C)C)C(=O)N[C@@H](Cc1ccc(O)cc1)C(N)=O)C(C)C) [peptide 16 (Pal-RNNSRLGNGVLY-NH2)] | 0.07 | 0.5 |
| Palmitoyl-NSRLGNGVLY-NH2 (SMILES CCCCCCCCCCCCCCCC(=O)N[C@@H](CC(N)=O)C(=O)N[C@@H](CO)C(=O)N[C@@H](CCCNC(=N)N)C(=O)N[C@@H](CC(C)C)C(=O)NCC(=O)N[C@@H](CC(N)=O)C(=O)NCC(=O)N[C@H](C(=O)N[C@@H](CC(C)C)C(=O)N[C@@H](Cc1ccc(O)cc1)C(N)=O)C(C)C) [peptide 17 (Pal-NSRLGNGVLY-NH2)] | 0.2 | 1.5 |
| Palmitoyl-NNSRLGNGVLY-NH2 (SMILES CCCCCCCCCCCCCCCC(=O)N[C@@H](CC(N)=O)C(=O)N[C@@H](CC(N)=O)C(=O)N[C@@H](CO)C(=O)N[C@@H](CCCNC(=N)N)C(=O)N[C@@H](CC(C)C)C(=O)NCC(=O)N[C@@H](CC(N)=O)C(=O)NCC(=O)N[C@H](C(=O)N[C@@H](CC(C)C)C(=O)N[C@@H](Cc1ccc(O)cc1)C(N)=O)C(C)C) [peptide 15 (Pal-NNSRLGNGVLY-NH2)] | 0.1 | 1.5 |

Other lines, results leading:

| GI50 (µM), MTT assay, MCF-7 cells [µM] | TGI (µM), MTT assay, MCF-7 cells [µM] | Binder |
| --- | --- | --- |
| 0.1 | 1.2 | Palmitoyl-RNNSRLGNGVLF-NH2 (SMILES CCCCCCCCCCCCCCCC(=O)N[C@@H](CCCNC(=N)N)C(=O)N[C@@H](CC(N)=O)C(=O)N[C@@H](CC(N)=O)C(=O)N[C@@H](CO)C(=O)N[C@@H](CCCNC(=N)N)C(=O)N[C@@H](CC(C)C)C(=O)NCC(=O)N[C@@H](CC(N)=O)C(=O)NCC(=O)N[C@H](C(=O)N[C@@H](CC(C)C)C(=O)N[C@@H](Cc1ccccc1)C(N)=O)C(C)C) [peptide 29 (Pal-RNNSRLGNGVLF-NH2)] |
| 1.7 | 3.7 | Palmitoyl-RNNSRLGNGVL-NH2 (SMILES CCCCCCCCCCCCCCCC(=O)N[C@@H](CCCNC(=N)N)C(=O)N[C@@H](CC(N)=O)C(=O)N[C@@H](CC(N)=O)C(=O)N[C@@H](CO)C(=O)N[C@@H](CCCNC(=N)N)C(=O)N[C@@H](CC(C)C)C(=O)NCC(=O)N[C@@H](CC(N)=O)C(=O)NCC(=O)N[C@H](C(=O)N[C@@H](CC(C)C)C(N)=O)C(C)C) [peptide 30 (Pal-RNNSRLGNGVL-NH2)] |
| 1.1 | 2.5 | Palmitoyl-KRNNSRLGNGVLY-NH2 (SMILES CCCCCCCCCCCCCCCC(=O)N[C@@H](CCCCN)C(=O)N[C@@H](CCCNC(=N)N)C(=O)N[C@@H](CC(N)=O)C(=O)N[C@@H](CC(N)=O)C(=O)N[C@@H](CO)C(=O)N[C@@H](CCCNC(=N)N)C(=O)N[C@@H](CC(C)C)C(=O)NCC(=O)N[C@@H](CC(N)=O)C(=O)NCC(=O)N[C@H](C(=O)N[C@@H](CC(C)C)C(=O)N[C@@H](Cc1ccc(O)cc1)C(N)=O)C(C)C) [peptide 27 (Pal-KRNNSRLGNGVLY-NH2)] |
| 0.05 | 2.5 | Palmitoyl-RNNSRLGNGVLYASV-NH2 (not fully specified; printed as Pal-RNNSRLGNGVLYASV-NH2) [peptide 35 (Pal-RNNSRLGNGVLYASV-NH2)] |
| 0.1 | > 5 | Palmitoyl-RNNSRLGNGVLYA-NH2 (not fully specified; printed as Pal-RNNSRLGNGVLYA-NH2) [peptide 33 (Pal-RNNSRLGNGVLYA-NH2)] |
| 0.04 | 0.1 | Palmitoyl-[dV][dS][dA][dY][dL][dV]G[dN]G[dL][dR][dS][dN][dN][dR]-NH2 (SMILES CCCCCCCCCCCCCCCC(=O)N[C@@H](C(=O)N[C@H](CO)C(=O)N[C@H](C)C(=O)N[C@H](Cc1ccc(O)cc1)C(=O)N[C@H](CC(C)C)C(=O)N[C@@H](C(=O)NCC(=O)N[C@H](CC(N)=O)C(=O)NCC(=O)N[C@H](CC(C)C)C(=O)N[C@H](CCCNC(=N)N)C(=O)N[C@H](CO)C(=O)N[C@H](CC(N)=O)C(=O)N[C@H](CC(N)=O)C(=O)N[C@H](CCCNC(=N)N)C(N)=O)C(C)C)C(C)C) [peptide 21 (Pal-VSAYLVGNGLRSNNR-NH2)] |
| 0.04 | > 5 | Palmitoyl-RNNSRLGNGVLYAS-NH2 (not fully specified; printed as Pal-RNNSRLGNGVLYAS-NH2) [peptide 34 (Pal-RNNSRLGNGVLYAS-NH2)] |
